Experiment [1] concerns the target T1, Human aggrecan G1-IGD-G2 domain with Flag-tag on its C-terminus (human, UniProt P16112 17-675).
T1 construct: used unlabelled as Biacore analyte; also called human aggrecan G1-IGD-G2-Flag; human Aggrecan G1G2 flag
The experiment can be described thus: BLI (Octet RED), biotin-labeled human aggrecan G1-IGD-G2-Flag on streptavidin sensor, 27 C.

For a further experiment, the target named is T2, human CD3ed-Fc (human).
T2 construct: human CD3 epsilon and human CD3 delta linked to a human antibody constant region, biotinylated in culture with BirA; also called CD3 epsilon delta heterodimer fused with the antibody constant region; biotin-labeled human CD3ed-Fc
T2 chain 1: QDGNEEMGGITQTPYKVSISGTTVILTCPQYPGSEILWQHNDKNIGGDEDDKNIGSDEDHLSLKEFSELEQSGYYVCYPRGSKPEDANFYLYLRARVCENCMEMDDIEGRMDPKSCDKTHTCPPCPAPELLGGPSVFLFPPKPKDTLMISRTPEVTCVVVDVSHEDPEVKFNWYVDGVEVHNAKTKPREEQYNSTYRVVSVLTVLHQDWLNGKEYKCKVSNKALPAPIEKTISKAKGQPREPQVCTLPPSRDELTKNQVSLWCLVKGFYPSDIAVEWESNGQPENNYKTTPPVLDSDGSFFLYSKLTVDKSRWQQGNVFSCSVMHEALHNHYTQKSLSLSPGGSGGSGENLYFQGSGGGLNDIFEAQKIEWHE
T2 chain 2: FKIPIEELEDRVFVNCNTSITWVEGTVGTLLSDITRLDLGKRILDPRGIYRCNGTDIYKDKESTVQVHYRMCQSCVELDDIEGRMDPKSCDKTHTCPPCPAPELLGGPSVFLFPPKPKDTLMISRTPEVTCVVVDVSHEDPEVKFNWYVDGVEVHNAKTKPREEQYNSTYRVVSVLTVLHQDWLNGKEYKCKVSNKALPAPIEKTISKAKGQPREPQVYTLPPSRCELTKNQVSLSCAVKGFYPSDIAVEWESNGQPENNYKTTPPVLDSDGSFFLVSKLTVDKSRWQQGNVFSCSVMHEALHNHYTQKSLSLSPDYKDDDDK
The experiment can be described thus: BLI (Octet RED), human CD3ed-Fc on the sensor. (In BLI a coated tip is dipped into the sample, and binding shifts an interference pattern.)

Another experiment concerns the target T3, biotinylated plexin A1 (human, UniProt Q9UIW2 27-1253, biotin on the AviTag sequence (BirA co-expression)).
T3 construct: extracellular region of plexin A1 linked to AviTag and FLAG tag; also called biotin-labeled human plexin A1; human plexin A1
Kind of experiment: BLI (Octet), in the same way as in Example 3.

The source of these data is patent publication US20210221875A1 (Chugai, published 2021).

Numbering of substitutions follows the chain as printed.

T3 sequence (Q9UIW2 other isoform, or with tags, fused parts or gaps limits assumed): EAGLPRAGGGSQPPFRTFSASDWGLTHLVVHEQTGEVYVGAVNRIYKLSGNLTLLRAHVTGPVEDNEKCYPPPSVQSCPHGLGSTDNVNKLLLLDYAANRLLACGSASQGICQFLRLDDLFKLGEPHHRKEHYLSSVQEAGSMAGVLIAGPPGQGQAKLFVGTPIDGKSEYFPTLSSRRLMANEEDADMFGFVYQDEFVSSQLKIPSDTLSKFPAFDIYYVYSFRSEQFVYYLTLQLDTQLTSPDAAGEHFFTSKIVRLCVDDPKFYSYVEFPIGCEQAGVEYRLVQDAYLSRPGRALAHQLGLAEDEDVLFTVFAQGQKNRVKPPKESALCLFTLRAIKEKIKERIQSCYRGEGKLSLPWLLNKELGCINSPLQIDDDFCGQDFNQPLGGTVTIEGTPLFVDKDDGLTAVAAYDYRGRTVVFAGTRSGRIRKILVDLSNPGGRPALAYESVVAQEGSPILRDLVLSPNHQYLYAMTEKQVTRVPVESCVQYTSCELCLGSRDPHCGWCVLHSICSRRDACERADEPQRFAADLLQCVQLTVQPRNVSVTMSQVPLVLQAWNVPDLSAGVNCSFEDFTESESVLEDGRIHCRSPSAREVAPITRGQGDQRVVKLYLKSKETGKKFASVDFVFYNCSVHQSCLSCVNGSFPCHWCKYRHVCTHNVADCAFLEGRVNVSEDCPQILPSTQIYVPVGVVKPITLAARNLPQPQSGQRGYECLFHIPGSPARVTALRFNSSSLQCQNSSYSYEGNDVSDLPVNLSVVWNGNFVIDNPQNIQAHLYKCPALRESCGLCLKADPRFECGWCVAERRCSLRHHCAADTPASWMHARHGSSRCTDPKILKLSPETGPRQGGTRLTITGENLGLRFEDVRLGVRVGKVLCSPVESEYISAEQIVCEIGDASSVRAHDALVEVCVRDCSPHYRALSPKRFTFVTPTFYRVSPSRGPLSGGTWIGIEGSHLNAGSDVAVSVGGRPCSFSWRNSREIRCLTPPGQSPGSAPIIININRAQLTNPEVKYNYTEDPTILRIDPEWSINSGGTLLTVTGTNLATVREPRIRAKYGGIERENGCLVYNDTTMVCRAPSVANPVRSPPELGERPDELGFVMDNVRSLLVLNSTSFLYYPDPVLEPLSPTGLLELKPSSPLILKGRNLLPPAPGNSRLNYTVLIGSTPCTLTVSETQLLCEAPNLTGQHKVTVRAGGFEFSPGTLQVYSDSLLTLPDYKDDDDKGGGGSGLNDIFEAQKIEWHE

B1: hA2R3p.038-G1mISHI01/VK1.39-k0MT (antibody, human IgG1, kappa, V domains shown)
VH: QLQLVESGGGLVQAGGSLRLSCAASGRTFRTYAMGWFRQAPGKEREFVSSISGSGGSKIYADSVKGRFTISRDNAKDTVNLQMNSLKPEDTAVYYCAVARGYYGTMASDPGLYDYWGQGTQVTVSS
VL: DIQMTQSPSSLSASVGDRVTITCRASQSISSYLNWYQQKPGKAPKLLIYAASSLQSGVPSRFSGSGSGTDFTLTISSLQPEDFATYYCLQFDSYPLTFGGGTKVEIKR
For the molecule B1, the binding result in experiment [1] was “binds”.

B2: bC3edL1R1N160H01-G1mISHI01/VK1-39-k0MT (antibody, human IgG1, kappa, V domains shown)
VH: QVQLVESGGGLVQPGGSLRLSCAASGFTFNHCWMYWVRQAPGKGLEWVSVINTDGGSAYYADSVKGRFTISRDNAKNTLYLQMNSLKSEDTAVYYCARDWAPLVDYYYGMDYWGKGTLVTVSG
VL: B1 VL
On to B2, for which the binding result with human CD3ed-Fc is recorded as “no binding”.

B3: bC3edL1R1N161H01-G1mISHI01/VK1-39-k0MT (antibody, human IgG1, kappa, V domains shown)
VH: QVQLVESGGGLVQPGGSLRLSCAASGFPFDNYVMSWVRQAPGKGLEWISAISWNGGSTYYAESMKGRFTISRDNAKSTLYLQMNSLKSEDTAVYYCAKEPRVYYSGSPDYWGQGTQVTVSG
VL: B1 VL
notes: uncleaved
B3: the binding result with human CD3ed-Fc is “no binding”.

B4: bC3edL1R1N164H01-G1mISHI01/VK1-39-k0MT (antibody, human IgG1, kappa, V domains shown)
VH: QVQLVESGGGLVQPGGSLRLSCAASGFTFDVYGMSWVRHSPGKGLEWVSTINWNGGSTYYAESMKGRFTISRDNAKNTVYLQMNSLKPEDTAVYYCAKFAPWDGDMEWGQGTQVTVSG
VL: B1 VL
notes: uncleaved
For B4, in the experiment with human CD3ed-Fc, the binding result was “no binding”.

B5: PX02-R4_017-G1mISHI01/VK1-39-k0MT (antibody, human IgG1, kappa, V domains shown)
VH: QVQLVESGGGLVQPGGSLRLSCTASGISFSISTMGWYRQAPGKQRELVATITSGGEAYYANSMKDRFTISRDNAENTVYLQMNRLKPEDSAVYYCNTKFPWSTDWNARGQGTQVTVSG
VL: B1 VL
notes: uncleaved; light chain printed once for the five molecules
As to B5, the binding result in the experiment with biotinylated plexin A1 was “no binding”.

B6: PX03-R4_009-G1mISHI01/VK1-39-k0MT (antibody, human IgG1, kappa, V domains shown)
VH: B5 VH with V2L, T52A, M63V, D65G, D72E, N73Y, Y79F
VL: B1 VL
notes: as for B5
As to B6, in the experiment with biotinylated plexin A1, the binding result is “no binding”.

B7: PX03-R2_006-G1mISHI01/VK1-39-k0MT (antibody, human IgG1, kappa, V domains shown)
VH: B5 VH with V2L, T52A, M63V, D65G
VL: B1 VL
notes: as for B5
B7: the binding result with biotinylated plexin A1 is “no binding”.
